Test results from the nanobody polyreactivity screen of Harvey et al. (2022).

test: yeast display, Sf9 membrane polyspecificity reagent, FACS + sequencing; frameworks hold sequencing errors
Outline: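 Galactose induction of a Saccharomyces cerevisiae BJ5465 synthetic nanobody display library ran 36–48 hours. The cells were then stained for 1 hour at 4 °C with 10% biotinylated, detergent-solubilized Sf9 membrane reagent, pulled down on streptavidin microbeads and FACS-sorted into low and high (top ~1%) gates on expression and reagent-binding fluorescence. Labels for polyreactivity follow the gate of origin.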

Sequence	polyreactivity (PSR sort gate)
KVQLVESGGGLVQAGGSLRLSCAASGFTFYGNAMGWYRQAPGKERELVATIRYRGGRTYYADSVKGRFTISRDNAKNTVYLQMNSLKPEDTAVYYCAARSVFLMWGQGTQVTVSS	high polyreactivity
QVQLVESGGGLVQAGGSLRLSCAASGNIFDLYAMGWYRQAPGKERELVAAITRSSSRTYYADSVKGRFTISRDNAKNTVYLQMNSLKPEDTAVYYCRAKQVNRFDYWGQGTQVTVSS	high polyreactivity
QVQLVESGVGLVQAGGSLRLSCAASGFIFGYYTMGWYRQAPGNERELVAAITYRGGSTYYAYSVKGRFTISRDNAKNTVYLQMNRLKPEDTAVYYCAIRTNVGHDSWGQGTEVTVSS	high polyreactivity
QDQLVESGGGLVQAGGSLRLSCAASGSTFYIYAMGWNIQAPGKERELVAAISTTDGTTYYADSVKGRFTISRDNAKKTVYLQMNSLKPEDTAVYYCAAEWFGSVQPAYDYWGQVTQVTVSS	high polyreactivity
QVQLVESGGGLVQAGGSLRLSCAASGFIFTDYAMGWYRQAPGKERELVATISWSGSSTYYADSVKGRFTISRDNEKNTVYLQMNILKPEDTGVYYCAAEFWYTYPYLVDYWRQGTQVTVSS	low polyreactivity
QVQLVESGGGLVQAGGSLRLSCAASGRTLRYYAMGWYRQAPGKERELVATISRAGRTNYADSVKGRFTISRDNAKNTVYLQMNSLKPEDTAVYYCAAGRVVYSYSDNYDYWGQGTQVTVSS	high polyreactivity
QVQLLESGGGLVQAGGSLRLRCASSGRIFVYYAMGWYRQAPGKERELVAANRWTGGSTYYADSVKGRFTISRDNAKNTVYLQMNSLKPEDTAVYYCATVNRYGHFNYWGQGTQVTVSS	high polyreactivity
QVQLVESGGGLVQAGGSLRLSCAASGSTIPLYAMGWYRQAPGKERELVAAISRRGGRTYYADSVKGRFTISRDYAKNTVYLQMNSLKQEDTAVYYCATAQGSRVDYWGQGTQVTVSS	high polyreactivity
QVQLVESGGGLVQAGGRLRLSCAASGFTFNSYVMGWYRQAPGKERELVAAITRSGDRTYYADSVKGRFTISRDNAKNTVYLQMNSLKPEDTAVYYCAATWSINYYGWYYYWGQGTQVTVSS	high polyreactivity
QVQLVESGGGLVQAGGSLRLSCAASGRIFGRYAMGWYRQAPGKERGLVAAITRRGGNTYYADSVKGRFTISRDNAKNTVYLQMNSLKPEDTAVYYCNDDTSTYAIRGQWSWYDYWGQGTQVTVSS	high polyreactivity
QVQLVESGGGLVQAGGSLRLSCAASGRSFIENVKGWYRQAPGKERELVAAIRSAGTTYNADSVKGRFTISRDNAKNTVYLQMNSLKPEDTAVDYCAATNRYYWSYFYQSKYGYWGQGTQVTVSS	low polyreactivity
QVQLEESGGGLVQAGGSLRLSCAASGRTFTVYAMGWYRQAPGKERELVAGIRRGDSTYYADSVKGRFTISRDNAKNTVYLQMNSLKPEDTAVYYCAARPAGYGHYKYYYWGQGTQVTVSS	high polyreactivity
QVQLVESGGGLVQAGGSLRLSCAASGRIFIDYAMGWYRPAPGKERELVATITSSGGSTYYADSVKGRFTISRDNAKNTVYLQMNRLKPEDTAVYYCNKEGSYDYDYWGQGTQVTVSS	low polyreactivity
QVQLVESGGGLVQAGGSLRLSCAASGRTFWYYTMGWYRQAPGKERELVAAITSGGSTYYADSVKGRFTISRDNAKNTVYLQMNSLKPEDTAVYYCAAYLYWDFTYYYALVDYWGQGTQVTVSS	high polyreactivity
QVQLVESGGGLVQAGGSLRLSCAASGFIFKYYAMGWYRQAPGKERELVAAISRRGGSTFYADSVKGRFTISRDNAKNTVYLQMNSLKPEDTAVYYCAAYYYYSAYGDDYWGQGTQVTVSS	high polyreactivity
QVQLVESGGGLVQAGGSLRLSCAASGRTFPSYAMGWYRQAPGKERELVAVIRGGGSTKYADSVKGRFTISRDNAKNTVYLQMNSLKPEDTAVYYCATRGYPKFNYIYYYWGQGTQVTVSS	high polyreactivity
QVQLVESGGGLVQAGGSLRLSCAASGYTFSYANAMGWYRQAPGKERELVASISSTGGRTYYADSVKGRFTISRDNAKNTVYLQMNSLKPEDTAVYYCASRYWRYGYWGQGTQVTVSS	high polyreactivity
QVQLVESGGRLVQAGGSLRLSCAASGSTFNINAMGWYRQAPGKERELVAAISWSGDITYYADSVKGRFTISRDNAKNNVYLQMNSLKPEDTAVYYCNTDDPGNYWYAEYDYWGQGTQVTVSS	low polyreactivity
QVQLVESVGGLVQAGGSLRLSCAASGRIFLWYAMGWYRQAPGKERELVAAISGSGGSTSYADSVKGRITISRDNAKNTVYLQMNSLKPEDTAVYYCAALYRTWARYKVYYWGQGTQVTVSS	high polyreactivity
QVQLVDSGGGLVQAGGSLRLSCAASGSILNNYAMGWYRQARGKERELVAAISSSGGTNYADSVKGRFTISRDNAKNTVYLQMNSLKPEDTAVYYCYADVLDGGYDYWGQGTQVTESS	low polyreactivity
QVQLVESGGGLVQAGGSLRLSCAASGRTSLVYAMGWYRQAPGKERQLVAAISRGGTTNYADSVKGRFTISRDNAKNTVYLQMNSLKPEDTAVYYCAARTIYHVRPMYYWGQGTQVTVSS	high polyreactivity
QVQLVESGGGLVQAGGSLRLSCAASGRTIYLNAMGWYRQAPGKERELVAAISRNGGSTYYADSVKGRFTISRDNAKNTVYLQMNSLKPEDTAVYYCAAEWDDGRSWYWYYLVGFEYWGQGTQVTVSS	high polyreactivity

Sequence	polyreactivity (PSR sort gate)
QVQLVESGGGIVQAGGSLRLSCAASGYTFGRYAMGWYRQAPGKERELVAGIRWRGGSTYYADSVKGRFTISRDNAKNTVYLQMNSLKPEDTAVYYCAAYGYPVYYNYHYDYWGQVTQVTVSS	high polyreactivity
QVQLVESGGGLVQAGGSLRLSCAASGSTFRYYTMGWYRQAPGKERELVAAISGSGGITYYADSVKGRFTMSRDNAKNNVYLQMNSLKPEDTAVYYCNAGVFYRDDYWGQGTQVTVSS	high polyreactivity
QVQLVESGGGLVQAGGSLRLSCAASGLIFGVYAMGWYRQAPGKERELVAGISWRGSSTYYADSVKGRFTISRDNAKNTVYLQMNSLKPEDTAVYYCAAVRRPSRHAYGGTAVYYWGQGTQVTVSS	high polyreactivity
QVQLVESGRGLVQAGGSLRLSCAASGIIFTYNAMGWYRQAPGKERELVAAISAGGGSTYYADSVKGRFTISRDNAKNTVYLQMNSLKPEDTAVYYCAAARRYATQFHYDSWGQGTQVTVSS	high polyreactivity
QVQLVESGGGLVQAGGSLRLSCAASGRTFNYNAMGWYRQAPGKERELVAAISWGGGSTFYAVSEKGRFTISRDNAKNTVYLQMNTLKPEDTAVYYCAADRQYGNRGAYYYWGQGTQVTVSS	low polyreactivity
QVQLVESGGGLVQAGGSLRLSCAASGSTFEYNAMGWYRQAPGKERELLADISYSDGSTYYADSVKGRFTISRDNAMNTVYLQMNSLKPEDTGVYYCAAYSGYGGVSMYYWGQGTHVTVSS	low polyreactivity
QVQLVESGGGLVQAGGSLRLSCAASGFTFYGNAMGSSRQAPGKEREWVAAITSTGNTYYADSVTGRFTISRDNAKNTVYLQMNSLKPEDTAVYYCARRGDILYDYWGQGTQVTVSS	low polyreactivity
QVQLVESGGGLVQAGGSLRLSCAASGSTFRWYAMGWYRQAPGKERELVAAISARGTSTYYADSVKGRFTISRDNAKNTVYLQMNSLKPEDTAVYYCAATRTYQLYRWAPRYYYWGQGTQVTVSS	high polyreactivity
QVQLVESGGGLVQAGGSLRLSCAASGRTFWRNTMGWYRQAPGKQREFVAASTFSGVRTYYADSVKGRFTISRDNAKNTVYLQMNSLKPEDTAVYYCAKSRQYIGGFDYWGQGTQVTVSS	high polyreactivity
QVQLVESGGGLVQAGGSLRLSCAASGRTLFYYTMGWYRQAPGKERELVAAISSGDSTNYADSVKGRFTISRDNAKNTVYLQMNSLQPEDTAVYYCATQYLLDYKKTYRTYYSPYDYWGQGTQVTVSS	low polyreactivity
QVQLVESGGGLVQAGCSLRLSCAASGSIFYRNPMVWYRQAPGKERELVAAISSDGSTNYADSVKGRFTISRDNAKNTVYLQMNSLKPEDTAVYYCAAPWTQILDYWGQGTQVTVSS	low polyreactivity
QVQLVESGAGLVQAGGSLRLSCAASGSTFGFNTMGWYRQAPGKERELVAAISWSTGRTNYADSVKGRFTISRDNAKNTVYLQMNRLKPEDTAVYYCAARALDKYRFGGRYDYWGQGTQVTVSS	low polyreactivity
QVQLVESGGGLVQAGGSLRLSCAASGFTLTQNAMGWYRQAPGKERELVAAISRSGGRTYYADSVKGRFTISRDNAKNTVYLQMNSLKPEDTAVYYCNAYVTYPGTTMDDWGQGTQVTVSS	high polyreactivity
QVQLQESGGGPVLAGGSLRLSCAASGTIFVRLDMGWYRQAPGKEREFVATIGSASSTYYADSVKGSFTISRDNVKNTVYLQMNSLKPEDTAVYYCAVSAAEQSRHYYWDQGTQVTVSS	low polyreactivity
QVQLVESGGGLVEAGGSLRLSCAASGRTFDYNAMGWYRQAPGKERELVAAISRGGSTYYADSVKGRFTISRDNPNNSVYLQMNSLKPEDTAVYYCAALYVRVGYDYWGQGTQVTVSS	high polyreactivity
QVQLVESGGGLVQAGGSLRISCAASGSIFTANSMGWYRQAPGKERELVAAITWSGGSTYYADSVKGRFTISRDNAKNTVYLQMNSLKPEDPAVYYCAALPLYLGPKRLGYWGQGTQVTVSS	high polyreactivity
QDQLVESGGGLVQAGGSLRLSCAASGSNFGPYAMGGYRHAPGKERELVARISGGGSTYYADSVKGRFTISRDNAKNTVYLQMNSLKPEDTAVYYCNVRNWAYWSHAIIYNYWGQGTLVTVSS	high polyreactivity
QVQLVESGGGLVQAGGSLRLSCAASGRIYDYMAWYRQAPGKERELVAAISWRGGRTYYADSVKGRFTISRDNAKNTVYLQMNSLKPEDTAVYYCAAKTTYRYGYWGQGSQVTVSS	high polyreactivity
QVQIEESGGGLVQAGGSLPLSCAASGTIFKYYTRGWYRLAPGKERELFAAISGSGGTTYYADSVKGRFTISRDNAKNTVYLQMNSLKPEDTAVYYCATAYYRAFRGDYWGQGTQVTVSS	high polyreactivity
QFQLVESGGGLVLAGGSLRLSCAASGRTYLVNAMGWYRQAPGKERELVAVITRGGSTNYADSVKGRFTISRDNAKNTDYLQMNSLKPEDTAVYYCAKQFSPYRSYGPVVRYDYWGLGTQVTVSS	low polyreactivity
QVQLVESGGGLVQAGGSLRLSCAASGSIFGPYAMGWYRPAPGKEREFVAAISGSGGSTYYEDSVKGRFTISRDNAKNTVYLQKNSLTPEDTAVYYCAARQAYVNRGRFRGATLDYWGQGTQVTVSS	high polyreactivity
